The test concerns the target Soluble HLA-DR4 (DRB1*0401) (human).

Consider “CII(256-276)(F263N, E266A) analog peptide”, for which the IL-4 secretion by pooled splenocytes and lymph node cells of CII-immunized DR4 transgenic mice (chimeric DR4 on the cells) cultured with 100 μg/ml peptide stood at 66 pg/mL.
For the substance “CII(256-276)(F263N, E266D) analog peptide”, the IL-4 secretion by pooled splenocytes and lymph node cells of CII-immunized DR4 transgenic mice (chimeric DR4 on the cells) cultured with 100 μg/ml peptide stood at 48 pg/mL.

For the origin of these results see publication PMC1779432.
